Measurements taken from patent US20220235103A1.

These binders were tested against SARS-CoV-2 spike protein variant B.1.1.7 (SARS-CoV-2), P0DTC2 (assay: cell-based or functional assay).

Binder | VSV Pseudotype Neutralization Assay IC50
vS07_29B10 (designed binder) MRGSHHHHHHGSDLGKKLLQAARAGQLDEVRELLKAGADVNAKDREGITPLHLAAQHGHLEIVEVLLKAGADVNAKDVWGRTPLHLAAWQGHLEIVEVLLKAGADVNAKDLAGATPLHVAALYGHLEIVEVLLKAGADVNAQDKSGKTPADLAARAGHQDIAEVLQKAA | 4.6 ng/mL
vS07_23E04 (designed binder) MRGSHHHHHHGSDLGKKLLQAARAGQLDEVRELLKAGADVNAKDQEGITPLHVAAHQGHLEIVEVLLKAGADVNAKDVWGRTPLHLAAWRGHLEIVEVLLKAGADVNAKDHAGATPLHAAALSGHLEIVEVLLKAGADVNAQDKSGKTPADLAARAGHQDIAEVLQKAA | 11.7 ng/mL
vS07_12C06 (designed binder) MRGSHHHHHHGSDLGKKLLQAARAGQLDEVRELLKAGADVNAKDREGKTPLHVAAQEGHLEIVEVLLKAGADVNAKDVWGRTPLHLAAWIGHLEIVEVLLKAGADVNAKDVSGATPLHAAALHGHLEIVEVLLNAGADVNAQDKSGKTPADLAARAGHQDIAEVLQKAA | 5.4 ng/mL
ALE049 (designed binder) MRGSHHHHHHGSDLGKKLLEAARAGQDDEVRELLKAGADVNAKDYFSHTPLHLAARNGHLKIVEVLLKAGADVNAKDFAGKTPLHLAANEGHLEIVEVLLKAGADVNAQDIFGKTPADIAADAGHEDIAEVLQKAAGSPTPTPTTPTPTPTTPTPTPTGSDLGKKLLEAARAGQDDEVRELLKAGADVNAKDYFSHTPLHLAARNGHLKIVEVLLKAGADVNAKDFAGKTPLHLAANEGHLEIVEVLLKAGADVNAQDIFGKTPADIAADAGHEDIAEVLQKAAGSPTPTPTTPTPTPTTPTPTPTGSDLGKKLLQAARAGQLDEVRELLKAGADVNAKDREGITPLHLAAQHGHLEIVEVLLKAGADVNAKDVWGRTPLHLAAWQGHLEIVEVLLKAGADVNAKDLAGATPLHVAALYGHLEIVEVLLKAGADVNAQDKSGKTPADLAARAGHQDIAEVLQKAAGSPTPTPTTPTPTPTTPTPTPTGSDLGKKLLQAARAGQLDEVRELLKAGADVNAKDREGKTPLHVAAQEGHLEIVEVLLKAGADVNAKDVWGRTPLHLAAWIGHLEIVEVLLKAGADVNAKDVSGATPLHAAALHGHLEIVEVLLNAGADVNAQDKSGKTPADLAARAGHQDIAEVLQKAAGSPTPTPTTPTPTPTTPTPTPTGSDLGKKLLQAARAGQLDEVRELLKAGADVNAKDQEGITPLHVAAHQGHLEIVEVLLKAGADVNAKDVWGRTPLHLAAWRGHLEIVEVLLKAGADVNAKDHAGATPLHAAALSGHLEIVEVLLKAGADVNAQDKSGKTPADLAARAGHQDIAEVLQKAA | 1.7 ng/mL
